Laboratory results from publication doi:10.1101/2025.05.22.655451.

Molecular target: HA N-terminally tagged C99 (APP C-terminal fragment C99) (UniProt P05067)
Assay: proximity ligation

Chain of HA N-terminally tagged C99 (APP C-terminal fragment C99) (P05067 672-770): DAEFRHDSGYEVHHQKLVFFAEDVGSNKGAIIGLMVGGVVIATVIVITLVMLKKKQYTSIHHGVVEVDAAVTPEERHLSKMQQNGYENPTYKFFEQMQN

PLA+ spots per cell (PLA+ spots per cell) | Substance
25 | MT5-MMP TM/IC (transmembrane and intracellular domains, extracellular domains depleted) (from UniProt Q9Y5R2 53-645) (domain or fragment)
25 | Chimera of the TM of MT1-MMP and the IC of MT5-MMP
21 | MT5-MMP TM/IC with alanine substitutions of the C-terminal PDZ-binding EWV motif (domain or fragment)
